Laboratory results published in the supplement of paper PMC6757056.
± gives the standard deviation of the averaged measurements.

B1: library; a variant is named by its letters at N, in order (parent)
chain: GCUGUCACCGGAAUACCAGCAUCGUCUUGAUGCCCUUGGAAGUCCGGUCUGAUGAGUCCNNNNNGGACGAAACAGC

Assays:
theophylline [1] = variants of: B1; assay: FACS-Seq fitted mean relative fluorescence mCherry/BFP without ligand (log10 relative fluorescence); higher = higher reporter protein expression; conditions: HEK293T, ligand present: no
Experimental: (§1)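 Hammerhead (sTRSV) ribozyme switch libraries with a ligand aptamer grafted on stem I and a randomized N4-6 loop II, cloned into the 3' UTR of mCherry and transiently transfected into HEK293T cells; RNA-Seq 72 h post transfection with ligand added 1 h before transfection; RNA read count / plasmid DNA read count normalized to the non-cleaving sTRSVctl (x100), log10; sequences with >100 DNA reads. FACS-Seq: lentiviral library sorted into 6 bins after 48 h ligand, log-normal fit mean of mCherry/BFP scaled to controls. Printed sequences are partial switch sequences.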

theophylline [2] = variants of: B1; assay: normalized RNA/DNA level with ligand (relative to sTRSVctl = 100) (log10 (% of sTRSVctl)); higher = less ribozyme self-cleavage, higher mRNA level; conditions: ligand concentration (+) RNA-Seq: 5 mM, HEK293T, reporter: mCherry (pCS4076), ligand present: yes
Experimental: as §1

theophylline [3] = variants of: B1; assay: normalized RNA/DNA level without ligand (relative to sTRSVctl = 100) (log10 (% of sTRSVctl)); higher = less ribozyme self-cleavage, higher mRNA level; conditions: HEK293T, reporter: mCherry (pCS4076), ligand present: no
Experimental: as §1

theophylline [4] = variants of: B1; assay: FACS-Seq fitted mean relative fluorescence mCherry/BFP with ligand (log10 relative fluorescence); ligand concentration (+) FACS-Seq: 1 mM; higher = higher reporter protein expression; conditions: HEK293T, ligand present: yes
Experimental: as §1

| Variant | FACS-Seq fitted mean (log10) (theophylline [1]) | normalized RNA/DNA level with ligand (log10) (theophylline [2]) | normalized RNA/DNA level without ligand (log10) (theophylline [3]) | FACS-Seq fitted mean (log10) (theophylline [4]) |
| --- | --- | --- | --- | --- |
| GCAAC | 0.716 ± 0.09 | 1.93 ± 0.066 | 1.826 ± 0.0042 | 0.739 ± 0.094 |
| GCAAU | 1.11 ± 0.06 | 1.96 ± 0.017 | 1.78 ± 0.027 | 1.06 ± 0.046 |
| GCAAG | 0.716 ± 0.087 | 1.97 ± 0.14 | 1.66 ± 0.062 | 0.9 ± 0.035 |
| GAUCU | 0.704 ± 0.15 | 1.98 ± 0.055 | 1.85 ± 0.03 | 0.81 ± 0.17 |
| GAUCG | 1.12 ± 0.081 | 1.9 ± 0.031 | 1.78 ± 0.05 | 1.17 ± 0.094 |
| CCCUC | 0.893 ± 0.045 | 2.032 ± 0.012 | 2.11 ± 0.057 | 0.84 ± 0.019 |
| CCCUA | 0.768 ± 0.05 | 2.01 ± 0.077 | 1.872 ± 0.011 | 0.751 ± 0.022 |
| GAUAU | 0.781 ± 0.093 | 1.946 ± 0.0078 | 1.75 ± 0.039 | 0.8102 ± 0.0061 |
| GCCAU | 0.669 ± 0.019 | 1.99 ± 0.077 | 1.88 ± 0.12 | 0.779 ± 0.05 |
| UAUCG | 1.02 ± 0.21 | 2.07 ± 0.028 | 2 ± 0.07 | 0.934 ± 0.064 |
| UAUCC | 0.705 ± 0.11 | 2.007 ± 0.016 | 2.02 ± 0.14 | 0.572 ± 0.019 |
| CAUAA | -0.291 ± 0.12 | 1.88 ± 0.0023 | 1.06 ± 0.47 | 0.446 ± 0.011 |
| CAUAC | 0.865 ± 0.024 | 1.917 ± 0.0021 | 1.8 ± 0.092 | 0.996 ± 0.019 |
| CAUAU | 0.397 ± 0.059 | 2.02 ± 0.043 | 1.76 ± 0.21 | 0.362 ± 0.069 |
| CAGUC | 0.691 ± 0.085 | 1.94 ± 0.086 | 1.86 ± 0.14 | 0.68 ± 0.13 |
| CAGUA | 0.206 ± 0.0074 | 1.95 ± 0.15 | 1.27 ± 0.084 | 0.675 ± 0.018 |
| CAGUU | 0.491 ± 0.036 | 2.06 ± 0.055 | 1.6287 ± 0.00046 | 0.76 ± 0.037 |
| ACAAA | 0.425 ± 0.062 | 2 ± 0.045 | 1.44 ± 0.11 | 0.7048 ± 0.0042 |
| ACAAU | 0.476 ± 0.2 | 1.99 ± 0.077 | 1.75 ± 0.096 | 0.44 ± 0.037 |
| ACAAG | 0.857 ± 0.14 | 1.99 ± 0.033 | 1.81 ± 0.12 | 0.8889 ± 0.0072 |
| ACAAC | 0.304 ± 0.051 | 1.97 ± 0.051 | 1.86 ± 0.038 | 0.206 ± 0.062 |
| UCAGA | 0.377 ± 0.081 | 1.96 ± 0.099 | 1.55 ± 0.13 | 0.6274 ± 0.0049 |
| UCAGU | 0.741 ± 0.036 | 2.011 ± 0.018 | 1.875 ± 0.018 | 0.752 ± 0.097 |
| ACCAA | 0.759 ± 0.043 | 2.02 ± 0.082 | 1.74 ± 0.069 | 0.832 ± 0.016 |

| Variant | FACS-Seq fitted mean (log10) (theophylline [1]) | normalized RNA/DNA level with ligand (log10) (theophylline [2]) | normalized RNA/DNA level without ligand (log10) (theophylline [3]) | FACS-Seq fitted mean (log10) (theophylline [4]) |
| --- | --- | --- | --- | --- |
| ACCAU | 0.574 ± 0.037 | 1.993 ± 0.011 | 1.86 ± 0.02 | 0.605 ± 0.068 |
| ACCAC | 1.02 ± 0.038 | 2 ± 0.055 | 2.006 ± 0.014 | 0.984 ± 0.066 |
| ACCAG | 0.9579 ± 0.0021 | 1.93 ± 0.028 | 1.83 ± 0.059 | 1.02 ± 0.047 |
| UCCCU | 0.877 ± 0.032 | 2.08 ± 0.12 | 1.97 ± 0.026 | 1.03 ± 0.11 |
| UCCCC | 1.11 ± 0.13 | 2.005 ± 0.019 | 2.01 ± 0.053 | 1.06 ± 0.032 |
| UCCCG | 1.07 ± 0.16 | 2.027 ± 0.0081 | 2.008 ± 0.0028 | 1.055 ± 0.0097 |
| UAUUG | 0.752 ± 0.025 | 2.07 ± 0.029 | 1.921 ± 0.017 | 0.768 ± 0.032 |
| UAUUC | 0.679 ± 0.022 | 1.99 ± 0.089 | 1.94 ± 0.11 | 0.6994 ± 0.0049 |
| UAUUU | 0.892 ± 0.098 | 1.995 ± 0.0037 | 1.94 ± 0.032 | 0.906 ± 0.048 |
| GAUUG | 0.498 ± 0.059 | 1.98 ± 0.1 | 1.75 ± 0.12 | 0.711 ± 0.017 |
| GAUUU | 0.1728 ± 0.00021 | 2.05 ± 0.067 | 1.78 ± 0.12 | 0.28 ± 0.031 |
| CCACC | 0.788 ± 0.091 | 1.99 ± 0.087 | 1.97 ± 0.061 | 0.739 ± 0.01 |
| CCACU | 0.682 ± 0.012 | 2.01 ± 0.059 | 1.76 ± 0.16 | 0.818 ± 0.014 |
| CCACA | 0.241 ± 0.0081 | 1.97 ± 0.022 | 1.75 ± 0.096 | 0.47 ± 0.086 |
| GAGUU | 0.55 ± 0.013 | 1.89 ± 0.025 | 1.6731 ± 0.00032 | 0.742 ± 0.063 |
| CCAAA | 0.24 ± 0.12 | 1.97 ± 0.051 | 1.48 ± 0.06 | 0.619 ± 0.23 |
| CCAAU | 0.688 ± 0.1 | 1.95 ± 0.058 | 1.64 ± 0.14 | 0.7987 ± 0.0017 |
| CCAAC | 0.72 ± 0.09 | 1.952 ± 0.012 | 1.92 ± 0.069 | 0.767 ± 0.018 |
| AAUUA | 0.392 ± 0.024 | 1.973 ± 0.0011 | 1.63 ± 0.13 | 0.477 ± 0.006 |
| AAUUG | 0.229 ± 0.1 | 2.02 ± 0.12 | 1.75 ± 0.15 | 0.292 ± 0.011 |
| AAUUC | 0.308 ± 0.094 | 1.981 ± 0.015 | 1.96 ± 0.033 | 0.335 ± 0.031 |
| AAUUU | 0.603 ± 0.084 | 1.98 ± 0.021 | 1.915 ± 0.0083 | 0.6371 ± 0.0013 |
| AAUAA | -0.00162 ± 0.092 | 1.88 ± 0.051 | 1.33 ± 0.021 | 0.509 ± 0.039 |
| AAUAU | -0.0622 ± 0.051 | 1.99 ± 0.083 | 1.75 ± 0.024 | 0.253 ± 0.077 |

| Variant | FACS-Seq fitted mean (log10) (theophylline [1]) | normalized RNA/DNA level with ligand (log10) (theophylline [2]) | normalized RNA/DNA level without ligand (log10) (theophylline [3]) | FACS-Seq fitted mean (log10) (theophylline [4]) |
| --- | --- | --- | --- | --- |
| AAUAG | 0.929 ± 0.015 | 1.965 ± 0.015 | 1.85 ± 0.039 | 0.894 ± 0.16 |
| AAUAC | 0.997 ± 0.065 | 1.95 ± 0.045 | 1.85 ± 0.084 | 1.061 ± 0.0058 |
| UAGUA | 0.245 ± 0.011 | 1.87 ± 0.019 | 1.45 ± 0.074 | 0.503 ± 0.008 |
| UAGUC | 0.521 ± 0.015 | 1.925 ± 0.01 | 1.88 ± 0.067 | 0.4472 ± 0.0043 |
| UCACA | 0.565 ± 0.12 | 2 ± 0.027 | 1.48 ± 0.097 | 0.896 ± 0.07 |
| UCACC | -0.0671 ± 0.15 | 1.92 ± 0.022 | 1.93 ± 0.053 | 0.0211 ± 0.046 |
| UCACU | 0.354 ± 0.029 | 2.003 ± 0.0094 | 1.85 ± 0.092 | 0.438 ± 0.015 |
| ACAGA | 0.413 ± 0.11 | 1.96 ± 0.064 | 1.54 ± 0.035 | 0.638 ± 0.062 |
| ACAGC | 1 ± 0.1 | 1.97 ± 0.018 | 1.95 ± 0.053 | 0.971 ± 0.05 |
| ACAGU | 0.512 ± 0.024 | 1.94 ± 0.057 | 1.65 ± 0.095 | 0.73 ± 0.011 |
| ACAGG | 0.315 ± 0.055 | 2 ± 0.057 | 1.78 ± 0.045 | 0.357 ± 0.0097 |
| CCCAC | 0.775 ± 0.051 | 1.975 ± 0.011 | 1.95 ± 0.061 | 0.711 ± 0.051 |
| CCCAA | 0.563 ± 0.0093 | 2.012 ± 0.0096 | 1.82 ± 0.13 | 0.684 ± 0.021 |
| CCCAU | 0.699 ± 0.08 | 1.97 ± 0.028 | 1.901 ± 0.019 | 0.822 ± 0.04 |
| CCAUU | 0.558 ± 0.021 | 1.983 ± 0.0031 | 1.75 ± 0.049 | 0.688 ± 0.011 |
| CCAUA | 0.864 ± 0.14 | 1.95 ± 0.036 | 1.5 ± 0.14 | 1.06 ± 0.12 |
| GCAUU | 0.42 ± 0.1 | 1.938 ± 0.0078 | 1.792 ± 0.0054 | 0.4217 ± 0.00082 |
| GCAUG | 0.8295 ± 0.0081 | 1.939 ± 0.013 | 1.79 ± 0.026 | 0.966 ± 0.067 |
| CCAGC | 0.9205 ± 0.0079 | 1.96 ± 0.056 | 1.994 ± 0.008 | 0.864 ± 0.14 |
| CCAGU | 0.937 ± 0.067 | 1.974 ± 0.0042 | 1.9 ± 0.12 | 0.929 ± 0.058 |
| CCAGA | 0.765 ± 0.044 | 1.95 ± 0.15 | 1.86 ± 0.098 | 0.758 ± 0.085 |
| UAUAC | 0.747 ± 0.029 | 2.06 ± 0.027 | 1.98 ± 0.088 | 0.749 ± 0.0085 |
| UAUAA | 0.194 ± 0.045 | 2.02 ± 0.052 | 1.47 ± 0.088 | 0.511 ± 0.038 |
